± gives the standard deviation of the averaged measurements.
How the values were obtained:
Saccharomyces cerevisiae [1] = test: protein stability index of tFT-peptide fusion (C-terminal peptide) (PSI (0-1 scale)); higher = more stable (slower turnover)
Experimental: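 MPS profiling in S. cerevisiae of the tFT-X12 degron library: putative degron peptides plus stable controls, 12 aa, fused to the C-terminus of a sfGFP-mCherry timer. Cells are FACS-sorted into 8 mCherry/sfGFP bins and deep-sequenced. PSI runs from 0 (unstable) to 1 (stable). Backgrounds are wild type, das1Δ and doa10Δ at 30 °C, and wild type, das1Δ, cdc34-1 and cdc53-1 at 37 °C; 2-3 technical replicates each.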

Saccharomyces cerevisiae [2] = test: as above; conditions: genetic background: wild type; temperature: 30 C
[3] = genetic background: cdc34-1, temperature: 37 C
[4] = genetic background: cdc53-1, temperature: 37 C
[5] = genetic background: das1 deletion, temperature: 30 C
[6] = genetic background: das1 deletion, temperature: 37 C
[7] = genetic background: doa10 deletion, temperature: 30 C
[8] = genetic background: wild type, temperature: 30 C
[9] = genetic background: wild type, temperature: 37 C
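Note: PSI is a weighted mean of sequencing reads over stability bins, variants kept only with over 10 reads, mCherry proximal and sfGFP distal, peptide attached via GGGS linker.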

Sequence | protein stability index (Saccharomyces cerevisiae [1]; [3]) | protein stability index (Saccharomyces cerevisiae [1]; [4]) | protein stability index (Saccharomyces cerevisiae [1]; [5]) | protein stability index (Saccharomyces cerevisiae [1]; [6]) | protein stability index (Saccharomyces cerevisiae [1]; [7]) | protein stability index (Saccharomyces cerevisiae [1]; [8]) | protein stability index (Saccharomyces cerevisiae [1]; [9]) | protein stability index (Saccharomyces cerevisiae [2])
FCVGVVIQLSGV | 0.435 ± 0.053 | 0.491 ± 0.034 | 0.311 ± 0.035 | 0.499 ± 0.0053 | 0.296 ± 0.0032 | 0.326 ± 0.021 | 0.473 ± 0.014 | 0.415 ± 0.0067
SQKKKIKKYKET | 0.574 ± 0.032 | 0.665 ± 0.14 | 0.644 ± 0.032 | 0.706 ± 0.018 | 0.172 ± 0.0036 | 0.147 ± 0.041 | 0.208 ± 0.049 | 0.217 ± 0.033
FCGLLGVCLVMG | 0.208 ± 0.042 | 0.298 ± 0.006 | 0.243 ± 0.032 | 0.389 ± 0.013 | 0.185 ± 0.016 | 0.221 ± 0.03 | 0.354 ± 0.011 | 0.326 ± 0.032
VPASWLRMLAFC | 0.197 ± 0.0024 | 0.578 ± 0.025 | 0.559 ± 0.024 | 0.701 ± 0.047 | 0.0659 ± 0.0043 | 0.0647 ± 0.013 | 0.0629 ± 0.016 | 0.05335 ± 0.00032
GLSGFLLLIVLY | 0.194 ± 0.027 | 0.256 ± 0.019 | 0.239 ± 0.02 | 0.417 ± 0.049 | 0.252 ± 0.0089 | 0.228 ± 0.035 | 0.35509 ± 0.00019 | 0.353 ± 0.026
GINYSNKKILVN | 0.574 ± 0.016 | 0.6729 ± 0.0015 | 0.493 ± 0.027 | 0.691 ± 0.026 | 0.278 ± 0.022 | 0.273 ± 0.033 | 0.57 ± 0.0072 | 0.444 ± 0.059
RLPFPVVLFLLF | 0.392 ± 0.033 | 0.465 ± 0.028 | 0.387 ± 0.041 | 0.515 ± 0.026 | 0.3 ± 0.008 | 0.28 ± 0.024 | 0.404 ± 0.011 | 0.352 ± 0.013
VRVFSLVVCWVV | 0.297 ± 0.064 | 0.359 ± 0.0043 | 0.262 ± 0.026 | 0.441 ± 0.0051 | 0.199 ± 0.004 | 0.219 ± 0.028 | 0.367 ± 0.032 | 0.414 ± 0.037
FGLRVHPIVFIF | 0.289 ± 0.032 | 0.269 ± 0.0053 | 0.374 ± 0.016 | 0.488 ± 0.018 | 0.0775 ± 0.022 | 0.0769 ± 0.016 | 0.0909 ± 0.047 | 0.128 ± 0.034
ARKWVAVTVTLW | 0.137 ± 0.038 | 0.232 ± 0.013 | 0.187 ± 0.036 | 0.3519 ± 0.00085 | 0.148 ± 0.021 | 0.189 ± 0.029 | 0.317 ± 0.011 | 0.267 ± 0.043
GFLVPSSPRCHQ | 0.708 ± 0.018 | 0.72 ± 0.039 | 0.6427 ± 0.0046 | 0.72 ± 0.0086 | 0.654 ± 0.018 | 0.681 ± 0.047 | 0.691 ± 0.012 | 0.727 ± 0.0082
PVWLFLVRAIKG | 0.431 ± 0.048 | 0.455 ± 0.024 | 0.321 ± 0.028 | 0.5125 ± 0.002 | 0.262 ± 0.0072 | 0.33 ± 0.029 | 0.512 ± 0.056 | 0.431 ± 0.0097
GVLHSKGPWFSG | 0.703 ± 0.028 | 0.757 ± 0.0099 | 0.652 ± 0.0073 | 0.75 ± 0.0095 | 0.65 ± 0.014 | 0.665 ± 0.014 | 0.72815 ± 0.0004 | 0.729 ± 0.017
VNRRCWISRTLP | 0.599 ± 0.023 | 0.716 ± 0.0041 | 0.645 ± 0.024 | 0.713 ± 0.012 | 0.137 ± 0.039 | 0.174 ± 0.04 | 0.289 ± 0.058 | 0.258 ± 0.065
PSDVLERVIRLL | 0.616 ± 0.027 | 0.714 ± 0.023 | 0.647 ± 0.019 | 0.7309 ± 0.00081 | 0.136 ± 0.0023 | 0.168 ± 0.01 | 0.277 ± 0.051 | 0.265 ± 0.026
LKFSLLLPVQVI | 0.327 ± 0.014 | 0.3735 ± 0.0026 | 0.301 ± 0.03 | 0.403 ± 0.0053 | 0.253 ± 0.0088 | 0.283 ± 0.025 | 0.337 ± 0.0053 | 0.3606 ± 0.0013
ARVSLSFVSVSA | 0.4168 ± 0.004 | 0.442 ± 0.012 | 0.279 ± 0.03 | 0.494 ± 0.007 | 0.225 ± 0.0052 | 0.281 ± 0.014 | 0.4672 ± 0.0023 | 0.404 ± 0.015
MCVCLLVRVVPS | 0.188 ± 0.0053 | 0.3241 ± 0.00049 | 0.211 ± 0.029 | 0.41 ± 0.01 | 0.175 ± 0.0074 | 0.194 ± 0.022 | 0.357 ± 0.0044 | 0.297 ± 0.044
KKKKNIKIKKQI | 0.74 ± 0.17 |  | 0.646 ± 0.034 | 0.711 ± 0.084 | 0.184 ± 0.025 | 0.215 ± 0.023 | 0.336 ± 0.12 | 0.276 ± 0.054
GQLIYQHIFILG | 0.662 ± 0.063 | 0.6481 ± 0.0016 | 0.47 ± 0.011 | 0.676 ± 0.025 | 0.312 ± 0.021 | 0.353 ± 0.021 | 0.5677 ± 0.0052 | 0.4678 ± 0.00024

Sequence | protein stability index (Saccharomyces cerevisiae [1]; [3]) | protein stability index (Saccharomyces cerevisiae [1]; [4]) | protein stability index (Saccharomyces cerevisiae [1]; [5]) | protein stability index (Saccharomyces cerevisiae [1]; [6]) | protein stability index (Saccharomyces cerevisiae [1]; [7]) | protein stability index (Saccharomyces cerevisiae [1]; [8]) | protein stability index (Saccharomyces cerevisiae [1]; [9]) | protein stability index (Saccharomyces cerevisiae [2])
GWVVWLTGCLVF | 0.512 ± 0.028 | 0.592 ± 0.014 | 0.446 ± 0.022 | 0.586 ± 0.042 | 0.407 ± 0.0086 | 0.443 ± 0.017 | 0.621 ± 0.028 | 0.4592 ± 0.0025
GLPRASPLPIPV | 0.553 ± 0.032 | 0.591 ± 0.006 | 0.447 ± 0.021 | 0.6021 ± 0.0017 | 0.425 ± 0.01 | 0.443 ± 0.016 | 0.57 ± 0.0065 | 0.517 ± 0.048
ILLHSFFSFYLL | 0.484 ± 0.0054 | 0.503 ± 0.0068 | 0.508 ± 0.027 | 0.5933 ± 0.0054 | 0.289 ± 0.009 | 0.269 ± 0.023 | 0.419 ± 0.006 | 0.30744 ± 1.3e-05
LFWWCMVFISLI | 0.3069 ± 0.0013 | 0.37 ± 0.015 | 0.285 ± 0.041 | 0.413 ± 0.0096 | 0.212 ± 0.017 | 0.231 ± 0.029 | 0.3395 ± 0.00099 | 0.3 ± 0.019
HVLGSIYWAIFV | 0.497 ± 0.02 | 0.493 ± 0.028 | 0.407 ± 0.024 | 0.563 ± 0.023 | 0.289 ± 0.0029 | 0.314 ± 0.03 | 0.499 ± 0.011 | 0.428 ± 0.011
SWLAQCVVISLL | 0.634 ± 0.015 | 0.654 ± 0.014 | 0.507 ± 0.029 | 0.662 ± 0.016 | 0.352 ± 0.0055 | 0.364 ± 0.019 | 0.56 ± 0.061 | 0.459 ± 0.011
RMLSLFFPLRTL | 0.651 ± 0.068 | 0.69994 ± 0.00052 | 0.624 ± 0.02 | 0.724 ± 0.024 | 0.196 ± 0.011 | 0.243 ± 0.048 | 0.4527 ± 0.0036 | 0.395 ± 0.035
VVWFCGFFFVMV | 0.386 ± 0.0054 | 0.449 ± 0.029 | 0.356 ± 0.036 | 0.509 ± 0.016 | 0.365 ± 0.031 | 0.325 ± 0.03 | 0.465 ± 0.012 | 0.399 ± 0.032
LGFFPSPVLCVF | 0.104 ± 0.056 | 0.104 ± 0.027 | 0.197 ± 0.024 | 0.209 ± 0.0036 | 0.171 ± 0.0087 | 0.193 ± 0.018 | 0.175 ± 0.0038 | 0.275 ± 0.02
VCLCVIICSMSV | 0.0201 ± 0.00092 | 0.041 ± 0.019 | 0.0324 ± 0.008 | 0.0699 ± 0.011 | 0.0265 ± 0.0033 | 0.0249 ± 0.0073 | 0.0544 ± 0.01 | 0.0535 ± 0.018
IGWKLNRIQKNI | 0.6858 ± 0.0052 | 0.735 ± 0.043 | 0.649 ± 0.028 | 0.728 ± 0.047 | 0.15 ± 0.021 | 0.193 ± 0.029 | 0.436 ± 0.011 | 0.326 ± 0.021
LAVVCIHAVSSF | 0.51 ± 0.042 | 0.538 ± 0.069 | 0.352 ± 0.018 | 0.533 ± 0.0038 | 0.333 ± 0.02 | 0.373 ± 0.042 | 0.518 ± 0.038 | 0.418 ± 0.077
VVTFCCARVTKI | 0.665 ± 0.048 | 0.6997 ± 0.0057 | 0.622 ± 0.038 | 0.665 ± 0.01 | 0.585 ± 0.026 | 0.571 ± 0.025 | 0.651 ± 0.021 | 0.522 ± 0.043
GCVTFVLISFCA | 0.238 ± 0.007 | 0.306 ± 0.039 | 0.225 ± 0.03 | 0.425 ± 0.012 | 0.186 ± 0.035 | 0.208 ± 0.027 | 0.386 ± 0.012 | 0.358 ± 0.016
LWVMVLFFPGCS | 0.3714 ± 0.0026 | 0.493 ± 0.0033 | 0.307 ± 0.042 | 0.552 ± 0.024 | 0.299 ± 0.0056 | 0.326 ± 0.025 | 0.5361 ± 0.0032 | 0.463 ± 0.043
LRVLSVVRLSVW | 0.479 ± 0.0067 | 0.545 ± 0.023 | 0.407 ± 0.034 | 0.545 ± 0.011 | 0.382 ± 0.02 | 0.4 ± 0.025 | 0.54567 ± 0.00028 | 0.468 ± 0.055
FFLLLVSVLSGW | 0.177 ± 0.035 | 0.255 ± 0.047 | 0.198 ± 0.017 | 0.3301 ± 0.00052 | 0.152 ± 0.02 | 0.185 ± 0.029 | 0.2942 ± 0.00091 | 0.316 ± 0.038
YNRKQEAAQKAN | 0.671 ± 0.02 | 0.735 ± 0.029 | 0.617 ± 0.0072 | 0.71085 ± 0.00017 | 0.363 ± 0.025 | 0.396 ± 0.018 | 0.606 ± 0.011 | 0.486 ± 0.14
LFSSFFVFRLLV | 0.322 ± 0.031 | 0.432 ± 0.039 | 0.455 ± 0.028 | 0.581 ± 0.0041 | 0.0949 ± 0.016 | 0.0904 ± 0.029 | 0.0847 ± 0.0039 | 0.146 ± 0.011

Source: the supplement of paper PMC10724198
